Measurements: patent US20260224661A1 (Stanford University, published 2026)

How the values were obtained:
[1] = biological target: Tenm1 (as used in the affinity determinations of FIG. 2E-F) (UniProt Q9UKZ4 1-2725); test: surface binding saturation curve
[2] = biological target: T1, Tenm1 expressed in HEK293 cells (human, UniProt Q9UKZ4 1-2725); test: surface-binding assay on HEK293 cells expressing Tenm1 (FIG. 4E)
T1 construct: also called teneurin-1

[3] = biological target: T2, Tenm2 expressed in HEK293 cells (human, UniProt Q9NT68 1-2774); test: surface-binding assay on HEK293 cells expressing Tenm2 (FIG. 4E)
T2 construct: also called teneurin-2

[4] = biological target: T3, Tenm3 expressed in HEK293 cells (mouse, UniProt Q9WTS6 1-2715); test: surface-binding assay on HEK293 cells expressing Tenm3 (FIG. 4E)
T3 construct: also called teneurin-3

[5] = biological target: T4, Tenm4 expressed in HEK293 cells (mouse, UniProt Q3UHK6 1-2771); test: surface-binding assay on HEK293 cells expressing Tenm4 (FIG. 4E)
T4 construct: also called teneurin-4

Sequence of Tenm1 (as used in the affinity determinations of FIG. 2E-F) (Q9UKZ4 other isoform, or with tags, fused parts or gaps): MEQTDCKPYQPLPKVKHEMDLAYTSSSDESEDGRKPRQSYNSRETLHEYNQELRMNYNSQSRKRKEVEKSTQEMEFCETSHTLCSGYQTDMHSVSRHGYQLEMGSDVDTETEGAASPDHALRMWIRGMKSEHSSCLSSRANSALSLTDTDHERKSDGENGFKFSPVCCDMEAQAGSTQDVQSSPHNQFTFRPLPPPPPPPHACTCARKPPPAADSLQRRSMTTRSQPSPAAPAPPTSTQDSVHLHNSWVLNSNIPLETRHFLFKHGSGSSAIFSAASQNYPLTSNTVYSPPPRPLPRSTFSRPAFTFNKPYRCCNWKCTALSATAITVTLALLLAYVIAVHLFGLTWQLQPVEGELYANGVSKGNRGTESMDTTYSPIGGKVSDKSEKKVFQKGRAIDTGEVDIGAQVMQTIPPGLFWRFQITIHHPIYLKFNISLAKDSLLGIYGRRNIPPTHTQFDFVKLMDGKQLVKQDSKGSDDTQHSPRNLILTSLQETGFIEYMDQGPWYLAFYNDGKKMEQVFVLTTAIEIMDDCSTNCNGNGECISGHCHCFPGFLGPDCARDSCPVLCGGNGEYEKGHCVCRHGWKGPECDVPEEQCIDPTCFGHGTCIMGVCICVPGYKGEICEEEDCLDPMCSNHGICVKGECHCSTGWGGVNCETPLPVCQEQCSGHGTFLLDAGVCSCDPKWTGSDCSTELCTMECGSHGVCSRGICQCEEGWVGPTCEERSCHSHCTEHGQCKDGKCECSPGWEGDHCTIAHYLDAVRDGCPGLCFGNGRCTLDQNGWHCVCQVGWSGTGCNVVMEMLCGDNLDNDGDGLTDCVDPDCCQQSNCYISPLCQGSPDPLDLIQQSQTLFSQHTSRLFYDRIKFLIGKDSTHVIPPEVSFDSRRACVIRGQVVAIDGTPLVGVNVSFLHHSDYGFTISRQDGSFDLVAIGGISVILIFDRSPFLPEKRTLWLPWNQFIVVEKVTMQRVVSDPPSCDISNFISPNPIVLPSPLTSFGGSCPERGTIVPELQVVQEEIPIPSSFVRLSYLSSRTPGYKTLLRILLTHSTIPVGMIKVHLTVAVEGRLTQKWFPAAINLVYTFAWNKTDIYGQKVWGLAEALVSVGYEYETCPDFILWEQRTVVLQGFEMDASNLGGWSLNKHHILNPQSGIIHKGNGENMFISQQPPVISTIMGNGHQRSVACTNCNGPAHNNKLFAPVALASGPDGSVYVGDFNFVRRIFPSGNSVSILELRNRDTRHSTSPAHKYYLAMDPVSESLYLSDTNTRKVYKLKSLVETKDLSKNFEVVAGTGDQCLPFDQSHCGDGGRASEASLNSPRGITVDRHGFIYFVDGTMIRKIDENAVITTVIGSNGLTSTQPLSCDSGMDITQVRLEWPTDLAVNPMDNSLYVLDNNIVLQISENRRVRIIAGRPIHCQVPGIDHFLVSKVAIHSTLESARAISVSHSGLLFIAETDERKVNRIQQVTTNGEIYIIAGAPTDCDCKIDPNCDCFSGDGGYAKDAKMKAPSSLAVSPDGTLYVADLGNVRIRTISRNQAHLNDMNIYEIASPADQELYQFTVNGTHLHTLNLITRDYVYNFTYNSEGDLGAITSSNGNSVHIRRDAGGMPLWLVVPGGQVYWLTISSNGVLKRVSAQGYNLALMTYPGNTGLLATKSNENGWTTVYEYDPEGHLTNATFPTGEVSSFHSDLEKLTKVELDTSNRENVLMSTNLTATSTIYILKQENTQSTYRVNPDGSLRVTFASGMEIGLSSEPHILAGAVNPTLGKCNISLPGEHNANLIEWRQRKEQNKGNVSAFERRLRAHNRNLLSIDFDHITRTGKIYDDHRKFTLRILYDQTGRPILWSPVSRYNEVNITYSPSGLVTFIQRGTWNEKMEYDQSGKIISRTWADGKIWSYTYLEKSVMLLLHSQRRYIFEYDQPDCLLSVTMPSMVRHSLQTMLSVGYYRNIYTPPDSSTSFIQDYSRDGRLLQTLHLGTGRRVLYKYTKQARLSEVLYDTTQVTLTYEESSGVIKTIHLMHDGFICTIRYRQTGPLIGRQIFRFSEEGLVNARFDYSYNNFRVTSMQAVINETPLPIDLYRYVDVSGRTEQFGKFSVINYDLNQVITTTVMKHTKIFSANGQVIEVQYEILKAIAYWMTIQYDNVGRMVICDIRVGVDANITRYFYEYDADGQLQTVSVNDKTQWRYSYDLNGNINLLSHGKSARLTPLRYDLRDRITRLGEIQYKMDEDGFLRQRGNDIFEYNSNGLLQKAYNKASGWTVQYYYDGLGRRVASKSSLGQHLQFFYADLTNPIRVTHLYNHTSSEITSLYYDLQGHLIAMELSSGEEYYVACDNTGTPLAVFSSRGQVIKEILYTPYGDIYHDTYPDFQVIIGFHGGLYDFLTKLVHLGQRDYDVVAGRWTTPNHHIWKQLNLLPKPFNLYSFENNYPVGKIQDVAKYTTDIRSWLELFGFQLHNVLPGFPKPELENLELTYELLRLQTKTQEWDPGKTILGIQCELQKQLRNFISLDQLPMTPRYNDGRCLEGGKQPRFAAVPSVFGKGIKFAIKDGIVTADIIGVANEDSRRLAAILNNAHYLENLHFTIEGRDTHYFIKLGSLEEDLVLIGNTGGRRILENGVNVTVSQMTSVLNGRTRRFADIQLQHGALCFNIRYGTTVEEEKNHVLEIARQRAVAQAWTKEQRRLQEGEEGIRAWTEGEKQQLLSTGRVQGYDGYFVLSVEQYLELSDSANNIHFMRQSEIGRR
T1 sequence (Q9UKZ4 other isoform, or with tags, fused parts or gaps): as above

B1: C-terminal SPARCL1-C domain of SPARCL1 (ligand)
chain: PNAEPSDEGNSREHSAGSCTNFQCKRGHICKTDPQGKPHCVCQDPETCPPAKILDQACGTDNQTYASSCHLFATKCRLEGTKKGHQLQLDYFGACKSIPACTDFEVAQFPLRMRDWLKNILMQLYEPNPKHGGYLNEKQRSKVKKIYLDEKRLLAGDHPIELLLRDFKKNYHMYVYPVHWQFNELDQHPADRILTHSELAPLRASLVPMEHCITRFFEECDPNKDKHITLKEWGHCFGIKEEDIDENLLF
Kd [1]: 88.2 nM

B2: full-length SPARCL1 (ligand)
chain: IPTSTRFLSDHSNPTTATLVTPEDATVPIAGVEATADIENHPNDKAEKPSALNSEEETHEQSTEQDKTYSFEVDLKDEEDGDGDLSVDPTEGTLTLDLQEGTSEPQQKSLPENGDFPATVSTSYVDPNQRANITKGKESQEQPVSDSHQQPNESSKQTQDLKAEESQTQDPDIPNEEEEEEEDEEEEEEEEPEDIGAPSDNQEEGKEPLEEQPTSKWEGNREQSDDTLEESSQPTQISKTEKHQSEQGNQGQESDSEAEGEDKAAGSKEHIPHTEQQDQEGKAGLEAIGNQKDTDEKAVSTEPTDAAVVPRSHGGAGDNGGGDDSKHGAGDDYFIPSQEFLEAERMHSLSYYLKYGGGEETTTGESENRREAADNQEAKKAESSPNAEPSDEGNSREHSAGSCTNFQCKRGHICKTDPQGKPHCVCQDPETCPPAKILDQACGTDNQTYASSCHLFATKCRLEGTKKGHQLQLDYFGACKSIPACTDFEVAQFPLRMRDWLKNILMQLYEPNPKHGGYLNEKQRSKVKKIYLDEKRLLAGDHPIELLLRDFKKNYHMYVYPVHWQFNELDQHPADRILTHSELAPLRASLVPMEHCITRFFEECDPNKDKHITLKEWGHCFGIKEEDIDENLLF
Kd [1]: 73.2 nM

B3: EF-hand Ca2+-binding domain of SPARCL1 (ligand)
chain: ACTDFEVAQFPLRMRDWLKNILMQLYEPNPKHGGYLNEKQRSKVKKIYLDEKRLLAGDHPIELLLRDFKKNYHMYVYPVHWQFNELDQHPADRILTHSELAPLRASLVPMEHCITRFFEECDPNKDKHITLKEWGHCFGIKEEDIDENLLF
notes: also called EF-hand domain; EC domain
binding result [2]: no binding
binding result [3]: no binding
binding result [4]: no binding
binding result [5]: no binding
